Reference: patent US9598677B2, “Use of human biliverdin reductase and fragments thereof for the treatment of protein kinase C-delta and ERK related conditions” (University of Rochester, priority 2009, dated 2017)
Ends that are not written are not given here. * marks the point of attachment. Myristoyl = CCCCCCCCCCCCCC(=O)*

What was measured:
[1] = molecular target: T1, PKC-ζ (Homo sapiens, UniProt Q05513); assay: PKC-ζ kinase assay in vitro; assay type: biochemical; settings: MBP substrate, higher concentrations required than for PKC-δ, FIG. 5D
T1 construct: purchased Millipore
T1 sequence (Q05513 1-592): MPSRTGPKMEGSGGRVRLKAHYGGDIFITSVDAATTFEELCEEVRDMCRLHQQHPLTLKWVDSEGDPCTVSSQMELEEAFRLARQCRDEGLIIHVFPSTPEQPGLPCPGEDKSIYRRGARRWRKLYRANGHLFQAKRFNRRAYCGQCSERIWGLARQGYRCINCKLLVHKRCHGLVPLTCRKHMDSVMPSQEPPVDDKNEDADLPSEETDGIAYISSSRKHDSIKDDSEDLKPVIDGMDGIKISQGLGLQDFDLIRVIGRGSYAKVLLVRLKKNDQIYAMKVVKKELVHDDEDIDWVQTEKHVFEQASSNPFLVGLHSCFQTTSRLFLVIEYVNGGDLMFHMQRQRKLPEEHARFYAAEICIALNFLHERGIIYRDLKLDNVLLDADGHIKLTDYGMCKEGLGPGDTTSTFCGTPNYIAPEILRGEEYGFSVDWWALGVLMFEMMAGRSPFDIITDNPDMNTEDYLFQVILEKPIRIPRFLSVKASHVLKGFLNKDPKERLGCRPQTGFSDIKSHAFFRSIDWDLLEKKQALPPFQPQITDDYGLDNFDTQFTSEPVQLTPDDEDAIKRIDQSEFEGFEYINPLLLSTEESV
Description: (§1) Measurement of PKC-β and PKC-ζ activities. Recombinant PKC-βII (Calbiochem) was assayed in vitro in 20 mM HEPES pH 7.2, 15 mM MgCl2, 0.2 mM CaCl2, 1 mM DTT, 25 mM β-glycerophosphate, 50 μg/ml phosphatidylserine and 5 μg/ml diacylglycerol, using 12.5 μM MBP as substrate, using 5 ng of enzyme per 50 μl reaction. 100 μM ATP (containing [γ^32P]-ATP (as above) was used to start the reaction, and incorporation was determined using p81 filter binding (Maines et al., “Human Biliverdin Reductase: A Previously Unknown Activator of Protein Kinase C-βII,” J. Biol. Chem. 282:8110-8122 (2007), which is hereby incorporated by reference in its entirety). Similarly, recombinant PKC-ζ(Millipore) was assayed in 20 mM MOPS pH 7.2, 15 mM MgCl2, 0.2 mM EDTA, with 12.5 μM MBP as substrate, again using 5 ng of enzyme per 50 μl reaction (Lerner-Marmarosh et al., “Regulation of TNF-alpha-Activated PKC-zeta Signaling By the Human Biliverdin Reductase: Identification of Activating and Inhibitory Domains of the Reductase,” FASEB J. 21:3949-3962 (2007), which is hereby incorporated by reference in its entirety). Otherwise, reaction conditions were as for PKC-βII.

[2] = molecular target: T2, PKC-βII (Homo sapiens, UniProt P05771); assay: PKC-βII kinase assay in vitro; assay type: biochemical; settings: MBP substrate, concentrations that markedly inhibited PKC-δ, FIG. 5D
T2 construct: purchased Calbiochem
Description: as §1

[3] = molecular target: PKC-δ (Homo sapiens, UniProt Q05655); assay: PMA-induced PKC-δ membrane translocation, confocal microscopy; assay type: cell-based; design: inserting the open reading frame of PKC-δ into the plasmid pDsRed2-C1; expressed in transfected cells; host or cells: 293A; settings: 10 μM myristoylated peptide, PMA 15 min, FIG. 5E
Description: Confocal microscopy: Experimental protocols were based on those described by Edwards et al., “Carboxyl-Terminal Phosphorylation Regulates the Function and Subcellular Localization of Protein Kinase C betall,” J. Biol. Chem. 274:6461-6468 (1999), which is hereby incorporated by reference in its entirety. 293A cells were grown in a chamber slide system (Nalge-Nunc International Corp., Naperville, Ill.). Cells were transfected with pEGFP-hBVR and/or the plasmid expressing Ds2-Red-PKC-δ fusion protein. After a 24 h starvation period, cells were fixed for 10 min in 4% Para-formaldehyde in PBS and permeabilized with 1% Triton X-100 in PBS. The cells were mounted with Vectashield (Vector Laboratories, Inc. Burlingame, Calif.), containing DAPI to visualize the nuclei. Non-transfected cells were permeabilized as above, treated with 1:150 dilution of polyclonal anti-PKC-δ antibodies, washed, blocked, and then treated with polyclonal anti-hBVR antibodies. The PBS-washed cells were then treated with Rhodamine-red-conjugated donkey anti-rabbit IgG antibodies (Jackson ImmunoResearch, West Grove, Pa.) for 30 min, followed by mounting. A Leica TCS SP (model DMRE) confocal microscope was used (Maines et al., “Human Biliverdin Reductase: A Previously Unknown Activator of Protein Kinase C-βII,” J. Biol. Chem. 282:8110-8122 (2007), which is hereby incorporated by reference in its entirety).

[4] = molecular target: T3, PKC-δ (Homo sapiens, UniProt Q05655, DEL151-160); assay: PKC-δ activity assay in situ in 293A cells; assay type: cell-based; settings: myristoylated peptide, FIG. 5C
T3 construct: The human PKC-δ open reading frame was also cloned in the same vectors; expressed in transfected cells; host or cells: HEK 293A
Description: The PKC-δ activity assay in situ was performed by a modification of procedures detailed by Williams and Schrier (Williams et al., Glucose-Induced Protein Kinase C Activity Regulates Arachidonic Acid Release and Eicosanoid Production by Cultured Glomerular Mesangial Cells,” J. Clin. Invest. 92:2889-2896 (1993), which is hereby incorporated by reference in its entirety). Cells were seeded into 48-well plates and transfected with 0.1 μg/well pcDNA3-hBVR. After 24 h, the medium was replaced with a starvation medium (0.1% serum) and incubation continued for another 24 h to synchronize cells. In some wells, PKC inhibitor Rottlerin (20 μM) was added 30 min before addition of PMA (100 nM) for 15 min. In some wells, hBVR-derived peptides were introduced to cells in their myristoylated form. Cells were washed with medium and incubated for 10 min at 30° C. in 50 μl of kinase assay buffer (137 mM NaCl, 5.4 mM KCl, 10 mM MgCl2, 0.3 mM Na2HPO4, 0.4 mM KH2PO4, 25 mM β-glycerophosphate, 5.5 mM D-glucose, 5 mM EGTA, 1 mM CaCl2, 20 mM HEPES (pH 7.2), 50 μg/ml digitonin, 120 μg/ml of PKC-δ specific substrate (ARRKRKGSFFGG; SEQ ID NO: 52) and 100 μM ATP labeled with 10 μCi/ml [γ-^32P]-ATP). The reaction was stopped with the addition of 25 μl of ice-cold 30% (wt/vol) TCA. The TCA-soluble fraction samples were transferred to p81 phospho-cellulose filters. […]

T2 sequence (P05771 1-673 isoform P05771-2): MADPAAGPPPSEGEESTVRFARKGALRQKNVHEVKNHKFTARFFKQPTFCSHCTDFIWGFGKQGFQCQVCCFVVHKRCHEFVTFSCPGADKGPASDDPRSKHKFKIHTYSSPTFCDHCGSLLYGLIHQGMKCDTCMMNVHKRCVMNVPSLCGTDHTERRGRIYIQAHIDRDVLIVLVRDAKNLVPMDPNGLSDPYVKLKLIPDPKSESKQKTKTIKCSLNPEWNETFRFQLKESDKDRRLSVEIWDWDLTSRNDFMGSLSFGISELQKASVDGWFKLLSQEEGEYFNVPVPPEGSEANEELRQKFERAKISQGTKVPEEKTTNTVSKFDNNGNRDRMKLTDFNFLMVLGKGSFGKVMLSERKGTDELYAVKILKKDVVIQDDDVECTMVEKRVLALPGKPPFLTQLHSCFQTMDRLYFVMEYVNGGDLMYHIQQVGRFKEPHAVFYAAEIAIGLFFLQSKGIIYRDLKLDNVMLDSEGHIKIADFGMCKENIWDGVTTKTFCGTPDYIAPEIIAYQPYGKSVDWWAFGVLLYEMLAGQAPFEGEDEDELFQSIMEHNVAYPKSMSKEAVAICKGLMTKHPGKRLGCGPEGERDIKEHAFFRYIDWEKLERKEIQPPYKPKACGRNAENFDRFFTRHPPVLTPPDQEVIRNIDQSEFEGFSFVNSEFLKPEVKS
Chain of PKC-δ (Homo sapiens, UniProt Q05655) (Q05655 whole entry, the tested form may be a part): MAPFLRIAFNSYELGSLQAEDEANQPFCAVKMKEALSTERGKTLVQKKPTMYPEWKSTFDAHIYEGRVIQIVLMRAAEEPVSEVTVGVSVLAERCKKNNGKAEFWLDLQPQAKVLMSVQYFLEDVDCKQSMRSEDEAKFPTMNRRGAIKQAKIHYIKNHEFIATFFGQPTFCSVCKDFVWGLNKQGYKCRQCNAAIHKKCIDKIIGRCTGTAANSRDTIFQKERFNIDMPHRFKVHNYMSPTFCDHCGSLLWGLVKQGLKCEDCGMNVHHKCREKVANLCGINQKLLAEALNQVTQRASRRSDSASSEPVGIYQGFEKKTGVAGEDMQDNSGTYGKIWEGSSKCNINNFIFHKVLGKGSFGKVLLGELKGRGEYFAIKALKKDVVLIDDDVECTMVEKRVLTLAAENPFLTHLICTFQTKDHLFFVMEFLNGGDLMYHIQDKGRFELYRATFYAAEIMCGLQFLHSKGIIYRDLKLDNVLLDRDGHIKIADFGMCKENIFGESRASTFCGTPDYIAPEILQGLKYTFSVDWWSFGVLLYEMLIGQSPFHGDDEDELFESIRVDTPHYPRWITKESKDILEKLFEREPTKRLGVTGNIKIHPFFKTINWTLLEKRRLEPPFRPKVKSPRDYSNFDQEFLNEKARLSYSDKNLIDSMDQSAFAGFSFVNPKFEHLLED
T3 sequence (Q05655 with tags, fused parts or gaps DEL151-160): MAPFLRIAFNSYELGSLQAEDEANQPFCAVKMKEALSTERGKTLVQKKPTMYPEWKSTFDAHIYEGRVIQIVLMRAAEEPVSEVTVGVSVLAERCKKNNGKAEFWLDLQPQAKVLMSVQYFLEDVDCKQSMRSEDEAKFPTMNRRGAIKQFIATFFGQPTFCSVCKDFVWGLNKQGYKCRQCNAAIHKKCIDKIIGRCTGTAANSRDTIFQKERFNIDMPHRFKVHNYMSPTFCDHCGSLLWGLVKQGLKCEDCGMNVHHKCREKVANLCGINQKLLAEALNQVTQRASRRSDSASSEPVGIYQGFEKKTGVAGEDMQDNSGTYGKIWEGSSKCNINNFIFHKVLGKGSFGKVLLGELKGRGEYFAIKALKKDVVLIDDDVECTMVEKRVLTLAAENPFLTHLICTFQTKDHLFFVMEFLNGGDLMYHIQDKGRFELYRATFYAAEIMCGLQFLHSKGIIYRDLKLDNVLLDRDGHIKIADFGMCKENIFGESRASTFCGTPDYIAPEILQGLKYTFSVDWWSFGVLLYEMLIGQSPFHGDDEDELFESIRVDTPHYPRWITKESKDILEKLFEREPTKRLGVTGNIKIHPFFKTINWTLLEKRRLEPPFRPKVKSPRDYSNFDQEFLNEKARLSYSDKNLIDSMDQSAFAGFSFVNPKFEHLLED

KRNRYLSF (Myristoyl-KRNRYLSF)
effect of inhibitory peptide on PKC-ζ activity [1]: responsive
effect of inhibitory peptide on PKC-βII activity [2]: essentially unaffected
PKC-δ translocation to the cell membrane upon PMA [3]: effectively inhibited
activity of constitutively active PKC-δ in cells [4]: effective inhibitor
